Experimental data taken from patent publication US20240409619A1.

What was measured:
Assay in all cases: cell-based or functional assay
[1] = molecular target: SARS-COV-2 spike of variant B.1.526 (Iota) on pseudotyped virus (SARS-COV-2) (UniProt P0DTC2)
[2] = molecular target: SARS-COV-2 spike of variant B.1.617.2 (Delta) on pseudotyped virus (SARS-COV-2) (UniProt P0DTC2)
[3] = molecular target: SARS-COV-2 spike of variant B.1.351 (Beta) on pseudotyped virus (SARS-COV-2) (UniProt P0DTC2)
[4] = molecular target: SARS-COV-2 spike of variant B.1.1.7 (Alpha) on pseudotyped virus (SARS-COV-2) (UniProt P0DTC2)

Substance	fold reduction in ID50, pseudovirus neutralization [1] [fold]	fold reduction in ID50, pseudovirus neutralization [2] [fold]	fold reduction in ID50, pseudovirus neutralization [3] [fold]	fold reduction in ID50, pseudovirus neutralization [4] [fold]	fold change of pseudovirus neutralization against WA1/2020 [3] [fold]
DMAb 2130_FcTM (antibody)	< 3	< 3	< 3	< 3	–
DMAb REGN10987 (antibody)	–	–	–	–	< 3
